Target: T1, Lon (wildtype) (UniProt P0CAW0 1-799)
T1 sequence: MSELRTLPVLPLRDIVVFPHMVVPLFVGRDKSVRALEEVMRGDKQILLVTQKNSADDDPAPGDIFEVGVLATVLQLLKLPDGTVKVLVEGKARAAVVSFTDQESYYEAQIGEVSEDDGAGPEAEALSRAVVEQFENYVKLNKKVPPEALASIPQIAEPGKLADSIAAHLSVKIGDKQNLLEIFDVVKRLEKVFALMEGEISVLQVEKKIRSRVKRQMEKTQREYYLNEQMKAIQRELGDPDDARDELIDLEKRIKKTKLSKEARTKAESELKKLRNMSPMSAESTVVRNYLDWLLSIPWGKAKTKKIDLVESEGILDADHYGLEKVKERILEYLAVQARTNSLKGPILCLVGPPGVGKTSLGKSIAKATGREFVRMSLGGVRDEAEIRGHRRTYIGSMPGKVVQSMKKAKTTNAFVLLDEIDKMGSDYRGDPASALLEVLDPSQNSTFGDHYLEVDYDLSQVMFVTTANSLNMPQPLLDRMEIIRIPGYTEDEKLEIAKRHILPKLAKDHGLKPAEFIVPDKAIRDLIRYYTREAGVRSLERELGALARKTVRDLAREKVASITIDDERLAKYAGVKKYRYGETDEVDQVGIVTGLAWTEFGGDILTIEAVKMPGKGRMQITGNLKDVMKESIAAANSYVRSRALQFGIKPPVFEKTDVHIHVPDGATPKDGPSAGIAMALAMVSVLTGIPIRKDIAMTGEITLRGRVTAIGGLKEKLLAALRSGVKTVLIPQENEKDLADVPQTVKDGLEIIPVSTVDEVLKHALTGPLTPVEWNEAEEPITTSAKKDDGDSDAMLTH
Experiment: fluorescence polarization

AACGGATGATCCACAGGAGAGTCTGGCGCAGGGCGAGAG (ssDNA) [FAM-DNA oligo]
Kd: 286 nM
